# Assays:
# gck3_caeel gck-3 [1] = target: gck3_caeel gck-3 (UniProt G5EEN4)
# gck3_caeel gck-3 [2] = target: gck3_caeel gck-3 (UniProt G5EEN4); remark: listed apart in the source
# gck3_caeel gck-3 [3] = target: gck3_caeel gck-3 (UniProt G5EEN4); remark: listed apart in the source
# Sequence of gck3_caeel gck-3 (G5EEN4 whole entry): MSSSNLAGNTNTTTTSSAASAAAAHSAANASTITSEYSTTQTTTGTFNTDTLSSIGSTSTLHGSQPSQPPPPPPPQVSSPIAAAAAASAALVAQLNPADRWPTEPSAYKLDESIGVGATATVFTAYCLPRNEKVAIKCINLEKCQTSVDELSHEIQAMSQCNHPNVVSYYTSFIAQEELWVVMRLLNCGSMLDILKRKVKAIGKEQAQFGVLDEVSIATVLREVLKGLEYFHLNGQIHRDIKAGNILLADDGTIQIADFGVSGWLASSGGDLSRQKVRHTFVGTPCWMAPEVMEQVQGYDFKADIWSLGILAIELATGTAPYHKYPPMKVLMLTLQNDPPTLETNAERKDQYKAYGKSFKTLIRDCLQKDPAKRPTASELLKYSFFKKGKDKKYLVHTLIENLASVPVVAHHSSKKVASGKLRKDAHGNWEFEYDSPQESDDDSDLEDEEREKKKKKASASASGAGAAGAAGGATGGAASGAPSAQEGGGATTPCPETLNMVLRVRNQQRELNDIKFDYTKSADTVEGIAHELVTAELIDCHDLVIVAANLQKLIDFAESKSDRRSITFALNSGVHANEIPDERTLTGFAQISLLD
substance,measurement,setting,value
"Serine/threonine-protein kinase WNK (Caenorhabditis elegans), X5M5N0 F1133A",effect of a mutation on the interaction,gck3_caeel gck-3 [1],decreasing interaction
"Serine/threonine-protein kinase WNK (Caenorhabditis elegans), X5M5N0 F1133A;F1222A",effect of a mutation on the interaction,gck3_caeel gck-3 [2],disrupting interaction
"Serine/threonine-protein kinase WNK (Caenorhabditis elegans), X5M5N0 F1222A",effect of a mutation on the interaction,gck3_caeel gck-3 [3],decreasing interaction
